The values below come from article PMC11094360, “Systematic characterization of gene families and functional analysis of PvRAS3 and PvRAS4 involved in rosmarinic acid biosynthesis in Prunella vulgaris” (Frontiers in Plant Science, 2024).

Data set [1] concerns PvRAS4. Briefly: UPLC of product formation, nonlinear regression. To be noted: varied acyl donor, 2 mM DHPL; 100 mM Tris-HCl pH 7.0, 2 mM DTT, 4 mM MgCl2, 10% glycerol, 25 °C. Type of data set: biochemical, Prunella vulgaris. From the text: UPLC of product formation, nonlinear regression on PvRAS4
The test system of data set [2] is PvRAS4. Briefly: UPLC of acceptor consumption, nonlinear regression. It is filed as biochemical, Prunella vulgaris. To be noted: varied acyl acceptor, 2 mM p-coumaroyl-CoA; 100 mM Tris-HCl pH 7.0, 2 mM DTT, 4 mM MgCl2, 10% glycerol, 25 °C. From the text: UPLC of acceptor consumption, nonlinear regression on PvRAS4
Substrate in the data set “purified protein”: O=C(O)[C@H](O)Cc1ccc(O)c(O)c1
Briefly: purified protein. To be noted: varied acyl acceptor, 2 mM p-coumaroyl-CoA, 100 mM Tris-HCl pH 7.0, 2 mM DTT, 4 mM MgCl2, 10% glycerol, 25 °C.

Substrate in data set [3]: O=C(O)C(O)Cc1ccc(O)cc1
Briefly: UPLC of acceptor consumption, nonlinear regression. Type of data set: biochemical, Prunella vulgaris. To be noted: varied acyl acceptor, 2 mM p-coumaroyl-CoA, 100 mM Tris-HCl pH 7.0, 2 mM DTT, 4 mM MgCl2, 10% glycerol, 25 °C.

Substrate in data set [4]: CC(C)(COP(=O)(O)OP(=O)(O)OC[C@H]1O[C@@H](n2cnc3c(N)ncnc32)[C@H](O)[C@@H]1OP(=O)(O)O)[C@@H](O)C(=O)NCCC(=O)NCCSC(=O)/C=C/c1ccc(O)c(O)c1
Kind of data set: UPLC of product formation, nonlinear regression. It is filed as biochemical, Prunella vulgaris. The conditions noted are these: varied acyl donor, 2 mM DHPL, 100 mM Tris-HCl pH 7.0, 2 mM DTT, 4 mM MgCl2, 10% glycerol, 25 °C.

Substrate in data set [5]: CC(C)(COP(=O)(O)OP(=O)(O)OC[C@H]1O[C@@H](n2cnc3c(N)ncnc32)[C@H](O)[C@@H]1OP(=O)(O)O)[C@@H](O)C(=O)NCCC(=O)NCCSC(=O)/C=C/c1ccc(O)cc1
Briefly: UPLC of product formation, nonlinear regression. Type of data set: biochemical, Prunella vulgaris. To be noted: varied acyl donor, 2 mM pHPL, 100 mM Tris-HCl pH 7.0, 2 mM DTT, 4 mM MgCl2, 10% glycerol, 25 °C.

The Km is the substrate concentration at which the rate is half of its maximum. With `CC(C)(COP(=O)(O)OP(=O)(O)OC[C@H]1O[C@@H](n2cnc3c(N)ncnc32)[C@H](O)[C@@H]1OP(=O)(O)O)[C@@H](O)C(=O)NCCC(=O)NCCSC(=O)/C=C/c1ccc(O)cc1` [p-coumaroyl-CoA], in the data set on PvRAS4 [1], the Km came out at 218 ± 10.3 µM.
On to `O=C(O)C(O)Cc1ccc(O)cc1` (stereo not shown) [pHPL], for which the Km in the data set with PvRAS4 [2] worked out at 228 ± 16.6 µM.
With `O=C(O)[C@H](O)Cc1ccc(O)c(O)c1` [DHPL], in the data set with PvRAS4 [2], the Km was 227 ± 17.5 µM.

B1: PvRAS3 (Prunella vulgaris) (protein)
chain: MKIEVKESTMVKPAAETPTGGLWISNLDLLSPANYHTLSVHFYRHDGSDNFFEAAPLKEALSRALVEFYPYAGRLKLNGKRLEIDCNGEGLLLVEAESDGTLEELGDFAPRPDLNLIPKVDYSKGISSYPLMLFQITRFKCGGVGLGVANEHHLSDGVSALHFINTWCHLARGVPAPSPAPVFDRTALSARSPPKVEFTHPEFQPPPTLPTPLEHTDIAYAKLKLSRDQLNALKAKCKSPATANGQENGKPARPYSTFEVLAGHIWRCVCAARGLPAEQETKLHIPFDGRAKLQLPAGFFGNAIFFATPIATCGEVEANSLSYAVRRVGDAIGRLDEEYLRSSVDFLELQDDISKLAQGAHSFRCPNLWVISWVRLPIYEPDFGWGKAVYMGPWAAPFEGKSYLLPNPDNDGSLFVAITLHTQHMDRFQNFFYDI
The Vmax is the rate approached at saturating substrate. For orientation: kcat means the number of substrate molecules converted per active site and unit of time at saturation. Usually kcat/Km stands for the second-order rate constant that governs catalysis at low substrate concentration. Turning to B1, the Km in the data set “purified protein” was 41.7 ± 1.2 µM; in data set [3], 32.1 ± 0.7 µM; in data set [4], 173.2 ± 9.0 µM; in data set [5], 30.6 ± 1.2 µM. For the same molecule, the Vmax is 18.2 µmol/min/mg in “purified protein”, 19.4 µmol/min/mg in data set [3], 9.95 µmol/min/mg in data set [4] and 18.7 µmol/min/mg in data set [5]. The kcat in “purified protein” is 30.5 s⁻¹; in data set [3], 33.3 ± 2.3 s⁻¹; in data set [4], 14.1 ± 1 s⁻¹; in data set [5], 34.3 ± 2.2 s⁻¹. Also, the kcat/Km in the data set “purified protein” came out at 700000 M⁻¹ s⁻¹; in data set [3] it was 1e+06 M⁻¹ s⁻¹; in data set [4], 80000 M⁻¹ s⁻¹; in data set [5], 1.1e+06 M⁻¹ s⁻¹.
